Experiment [1] addresses human CD40-Fc protein (Cat #: CD0-H5253, ACRO Biosystems) (human, UniProt P25942 21-193). Kind of experiment: dual-binding ELISA: human CD40-Fc coated, binder titrated, detected with human CD47-his and anti-His-HRP, OD450. The method, then:
The binding activity of the recombinant fusion proteins to human CD40 and CD47 was also tested by dual-binding ELISA assay. Briefly, 100 μl/well human CD40-Fc proteins (Cat #: CD0-H5253, ACRO Biosystems) were coated on 96-well plates at 0.2 μg/mL in PBS and incubated overnight at 2-8° C. The next day, the plates were washed 3 times using wash buffer (PBS+0.05% v/v Tween-20, PBST), and then blocked with block buffer (PBS+1% w/v BSA) for 3 hours at 37° C. The plates were then washed 3 times using the wash buffer.
Serially diluted recombinant fusion proteins of the disclosure or controls (starting at 100 nM with a 6-fold serial dilution) in block buffer were added to the CD40-Fc bound plates, 100 μL per well, and incubated at 37° C. for 1 hour. The plates were washed 3 times using wash buffer, and then added and incubated for 1 hour at 37° C. with 100 μl/well 3 μg/mL human CD47-his protein (Cat #: CD7-H5227, ACRO Biosystems). The plates were washed again using wash buffer, added with 100 μl/well Anti-His tag Antibody (HRP) (1:2000 dilution in block buffer, Cat #: 105327-MM02T-H, Sino Biological) and incubated for 1 hour at 37° C. The plates were washed again using wash buffer. […] The absorbance was read using a microplate reader set to 450 nm, then the OD (450) values were plotted against the recombinant fusion protein or controls concentration. Data was analyzed using Graphpad Prism and EC₅₀ values were reported.
(An ELISA detects its analyte on a solid surface through an enzyme-linked reagent.)

Experiment [2] addresses T1, biotin-labeled human CD47-Fc (Biosion in house made) (human, biotin-labeled (sites not given)).
T1 construct: also called Human CD47-Fc protein
Kind of experiment: competitive ELISA: binder premixed with biotin-labeled human CD47-Fc, blocked partner coated human CD172a-Fc, OD(450-630). As for the experimental part: The ability of the recombinant fusion proteins of the disclosure to block CD47-CD172a binding was measured in a competitive ELISA assay. Briefly, 100 μl/well human CD172a-Fc proteins (prepared in-house with amino acid sequence of SEQ ID NO: 24) were coated on 96-well micro plates at 2 μg/mL in coating buffer (carbonate/bicarbonate buffer) and incubated overnight at 4° C. The next day, the plates were washed once with wash buffer (PBS+0.05% v/v Tween-20, PBST), and then blocked with 5% w/v non-fatty milk in PBST for 2 hours at 37° C. The plates were then washed 4 times using wash buffer.
Serially diluted recombinant fusion proteins of the disclosure or controls (starting at 100 nM with a 5-fold serial dilution) were mixed with 20 ng/ml biotin-labeled human CD47-Fc (Biosion in house made, SEQ ID NO: 23) in PBST with 2.5% w/v non-fatty milk. The mixtures were incubated at 37° C. for 40 minutes, and respectively added to the CD172a-Fc bound plates, 100 μl per well. The plates were incubated at 37° C. for 40 minutes, washed 4 times using wash buffer, added with 100 μl/well streptavidin conjugated HRP (1:10000 dilution in PBST buffer, Cat #: 016-030-084, Jackson ImmunoResearch), incubated for 40 minutes at 37° C., and washed again using wash buffer. […] The plates were read on a microplate reader using the dual wavelength mode with 450 nm for TMB and 630 nm as the reference wavelength, and the OD (450-630) values were plotted against the recombinant fusion protein or controls concentration. Data was analyzed using Graphpad Prism and IC₅₀ values were reported. Wild-type SIRPαV2D1-Fc (IgG2) (SEQ ID NO: 21, X1=V, X2=K, X3=S, X4=K, X5=F) was used as a positive control.

In experiment [3] the target is T2, cynomolgus CD40-his protein (Biosion in house made) (cynomolgus, UniProt P25942 21-191 (human entry), limits assumed).
T2 construct: also called Cyno CD40-his
T2 chain: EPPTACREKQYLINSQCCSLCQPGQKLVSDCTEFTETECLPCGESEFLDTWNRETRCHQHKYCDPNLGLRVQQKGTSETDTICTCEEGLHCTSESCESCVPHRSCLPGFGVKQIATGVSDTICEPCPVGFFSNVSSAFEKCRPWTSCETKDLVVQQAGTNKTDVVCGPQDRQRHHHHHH
Put plainly: SPR (Biacore T200), sample on Protein A chip, antigen-his analyte, 1:1 fit. From the text:
(§1) The purified recombinant fusion proteins were characterized for their binding affinity and binding kinetics by Biacore T200 system (GE healthcare, Pittsburgh, PA, USA). The anti-CD40 antibody HuCD40-C1H1-V2 (having the heavy chain and the light chain of SEQ ID NOs: 19 and 20), Selicrelumab (an agonistic anti-CD40 antibody, Roche Inc., prepared in-house with heavy and light chains of SEQ ID NOs: 27 and 28), and SIRPα-Fc fusion proteins, including SIRPαV2D1M1-Fc (IgG2) (SEQ ID NO: 21, X1=I, X2=R, X3=T, X4=K, X5=F), SIRPαV2D1M2-Fc (IgG2) (SEQ ID NO: 21, X1=I, X2=R, X3=T, X4=R, X5=V), SIRPα-isoform2-Fc (SEQ ID NO: 25) were used as positive controls.
(§2) A Protein A chip (Cat #: 29-1275-56, GE healthcare) was used for affinity determination. The recombinant fusion proteins of the disclosure and the positive controls each at the concentration of 2 μg/ml were respectively flowed onto the chip at a flow rate of 10 μl/min. Then, serially diluted recombinant human CD40-his proteins (Cat #: CD0-H5228, Acro biosystems), human CD47-his proteins (Cat #: CD7-H5227, Acro biosystems), cynomolgus CD40-his proteins (Biosion in house made, SEQ ID NO: 29) or cynomolgus CD47-his proteins (Cat #: CD7-C52H1, Acro biosystems), 2-fold dilution in HBS-EP⁺ buffer (provided by Biacore) with a starting concentration of 200 nM, were flowed onto the chip at a flow rate of 30 μl/min. The association kinetics was followed for 2 minutes and the dissociation kinetics was followed for 10 minutes. The association and dissociation curves were fit to a 1:1 Langmuir binding model using the Biacore evaluation software.

Experiment [4] addresses T3, cynomolgus CD47-his protein (Cat #: CD7-C52H1, Acro biosystems) (cynomolgus, UniProt A0A2K5X523 19-139).
T3 construct: Bought protein; also called Cyno CD47-his
The experiment is described as above.
From the text: as §1, §2

The target in experiment [5] is T4, recombinant human CD40-his protein (Cat #: CD0-H5228, Acro biosystems) (human, UniProt P25942 21-193).
T4 construct: Bought protein
Described as above.
From the text: as §1, §2

For experiment [6], the target named is T5, human CD47-his protein (Cat #: CD7-H5227, Acro biosystems) (human, UniProt Q08722 19-139).
T5 construct: Bought protein
Described as above.
From the text: as §1, §2

T5 sequence (Q08722 19-139 limits assumed): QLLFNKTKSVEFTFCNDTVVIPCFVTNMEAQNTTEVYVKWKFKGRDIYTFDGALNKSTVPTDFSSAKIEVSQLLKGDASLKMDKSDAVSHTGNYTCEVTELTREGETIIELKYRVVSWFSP

B1: BSI038×S-004 (bispecific antibody, human IgG2, kappa)
heavy: EEELQVIQPDKSVSVAAGESAILHCTITSLIPVGPIQWFRGAGPARELIYNQREGHFPRVTTVSETTKRENMDFSISISNITPADAGTYYCVKFRKGSPDTEFKSGAGTELSVRAKPSAPVVSGPAARATPGGGGSGGGGSEVQLVESGGGLVKPGGSLRLSCAASGFTFSNYGISWVRQAPGKGLEWVSSISSGGDNTYYPDNVKGRFTISRDNAKNSLYLQMNSLRAEDTAVYYCARAGEKAMDYWGQGTLVTVSSASTKGPSVFPLAPCSRSTSESTAALGCLVKDYFPEPVTVSWNSGALTSGVHTFPAVLQSSGLYSLSSVVTVPSSNFGTQTYTCNVDHKPSNTKVDKTVERKCCVECPPCPAPPVAGPSVFLFPPKPKDTLMISRTPEVTCVVVDVSHEDPEVQFNWYVDGVEVHNAKTKPREEQFNSTFRVVSVLTVVHQDWLNGKEYKCKVSNKGLPAPIEKTISKTKGQPREPQVYTLPPSREEMTKNQVSLTCLVKGFYPSDIAVEWESNGQPENNYKTTPPMLDSDGSFFLYSKLTVDKSRWQQGNVFSCSVMHEALHNHYTQKSLSLSPGK
light: EIVLTQSPATLSLSPGERATLSCRASQTINNNLHWYQQKPGQAPRLLIKYASQSISGIPARFSGSGSGTDFTLTISSLEPEDFAVYFCQQFSSWPLTFGGGTKVEIKRTVAAPSVFIFPPSDEQLKSGTASVVCLLNNFYPREAKVQWKVDNALQSGNSQESVTEQDSKDSTYSLSSTLTLSKADYEKHKVYACEVTHQGLSSPVTKSFNRGEC
notes: SIRPαV2D1 variant M1 linked to N-terminus of each heavy chain of HuCD40-C1H1-V2 (human IgG2)
Usually EC50 stands for the midpoint of the concentration-response curve. Lower therefore signals higher potency in that assay. As usually defined, the IC50 is the concentration that inhibits the measured activity by half. Low readings indicate greater potency, high ones weaker potency. The term Kd denotes the constant that tells how readily two partners part at equilibrium. One may read the koff as a measure of how fast the partners let go of each other. A word on the kon: it is the rate constant with which the complex forms. Regarding B1, in experiment [1], the concentration giving a half-maximal response (EC50) turned out to be 0.213 nM. For the same molecule, the half-maximal inhibitory concentration (IC50) in experiment [2] was 2.74 nM. In addition, the Kd is 2.16 nM in experiment [3], 6.08 nM in experiment [4], 0.937 nM in experiment [5] and 0.987 nM in experiment [6]. The koff in experiment [3] was 0.00163 s⁻¹; in experiment [4], 0.000576 s⁻¹; in experiment [5], 0.00164 s⁻¹; in experiment [6], 0.000586 s⁻¹. In addition, the on-rate (kon) in experiment [3] came out at 753000 M⁻¹ s⁻¹; in experiment [4] it was 94800 M⁻¹ s⁻¹; in experiment [5], 1.75e+06 M⁻¹ s⁻¹; in experiment [6], 594000 M⁻¹ s⁻¹.

B2: BSI038×S-005 (bispecific antibody, human IgG2, kappa)
heavy: EEELQVIQPDKSVSVAAGESAILHCTITSLIPVGPIQWFRGAGPARELIYNQREGHFPRVTTVSETTRRENMDFSISISNITPADAGTYYCVKFRKGSPDTEVKSGAGTELSVRAKPSAPVVSGPAARATPGGGGSGGGGSEVQLVESGGGLVKPGGSLRLSCAASGFTFSNYGISWVRQAPGKGLEWVSSISSGGDNTYYPDNVKGRFTISRDNAKNSLYLQMNSLRAEDTAVYYCARAGEKAMDYWGQGTLVTVSSASTKGPSVFPLAPCSRSTSESTAALGCLVKDYFPEPVTVSWNSGALTSGVHTFPAVLQSSGLYSLSSVVTVPSSNFGTQTYTCNVDHKPSNTKVDKTVERKCCVECPPCPAPPVAGPSVFLFPPKPKDTLMISRTPEVTCVVVDVSHEDPEVQFNWYVDGVEVHNAKTKPREEQFNSTFRVVSVLTVVHQDWLNGKEYKCKVSNKGLPAPIEKTISKTKGQPREPQVYTLPPSREEMTKNQVSLTCLVKGFYPSDIAVEWESNGQPENNYKTTPPMLDSDGSFFLYSKLTVDKSRWQQGNVFSCSVMHEALHNHYTQKSLSLSPGK
light: EIVLTQSPATLSLSPGERATLSCRASQTINNNLHWYQQKPGQAPRLLIKYASQSISGIPARFSGSGSGTDFTLTISSLEPEDFAVYFCQQFSSWPLTFGGGTKVEIKRTVAAPSVFIFPPSDEQLKSGTASVVCLLNNFYPREAKVQWKVDNALQSGNSQESVTEQDSKDSTYSLSSTLTLSKADYEKHKVYACEVTHQGLSSPVTKSFNRGEC
notes: SIRPαV2D1 variant M2 linked to N-terminus of each heavy chain of HuCD40-C1H1-V2 (human IgG2)
As to B2, the midpoint of the response in experiment [1], the EC50, lay at 0.197 nM. Moreover, in experiment [2], the IC50 amounted to 2.5 nM. In addition, the Kd was found to be 2.2 nM in experiment [3], 5.39 nM in experiment [4], 0.935 nM in experiment [5] and 1.15 nM in experiment [6]. For the same molecule, the off-rate constant (koff) in experiment [3] amounted to 0.00167 s⁻¹; in experiment [4] it was 0.000495 s⁻¹; in experiment [5] it was 0.00165 s⁻¹; in experiment [6] it was 0.000598 s⁻¹. For the same molecule, the kon stood at 759000 M⁻¹ s⁻¹ in experiment [3], 91800 M⁻¹ s⁻¹ in experiment [4], 1.77e+06 M⁻¹ s⁻¹ in experiment [5] and 518000 M⁻¹ s⁻¹ in experiment [6].

Source of the values: patent publication US20250109212A1 (BIOSION, published 2025).
